From PMC12394453
Where “and” joins values, the source holds several entries; their conditions need not be identical. Equal entries are not always repeated.

Molecular target: HeV-G (wild-type Hendra virus attachment glycoprotein G, soluble recombinant) (Hendra virus) (UniProt O89343)
Assay: SEC; oligomeric states of the purified G protein (Supplementary Fig. 7)

Chain of HeV-G (wild-type Hendra virus attachment glycoprotein G, soluble recombinant) (O89343 71-604 limits assumed): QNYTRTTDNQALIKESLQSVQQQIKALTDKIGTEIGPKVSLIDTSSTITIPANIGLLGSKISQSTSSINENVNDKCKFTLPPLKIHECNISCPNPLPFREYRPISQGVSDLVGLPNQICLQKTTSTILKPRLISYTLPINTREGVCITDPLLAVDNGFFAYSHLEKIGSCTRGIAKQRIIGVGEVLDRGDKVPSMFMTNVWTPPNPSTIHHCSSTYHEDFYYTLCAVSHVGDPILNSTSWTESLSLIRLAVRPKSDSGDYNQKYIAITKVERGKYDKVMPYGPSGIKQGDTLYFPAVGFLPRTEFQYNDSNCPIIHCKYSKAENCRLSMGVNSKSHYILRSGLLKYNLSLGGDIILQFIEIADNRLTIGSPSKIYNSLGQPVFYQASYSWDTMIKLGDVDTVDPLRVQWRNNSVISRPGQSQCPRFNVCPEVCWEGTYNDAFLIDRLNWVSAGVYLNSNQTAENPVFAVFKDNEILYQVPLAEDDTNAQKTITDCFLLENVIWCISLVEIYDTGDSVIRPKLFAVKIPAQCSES

Substance: HeV-G (wild-type Hendra virus attachment glycoprotein G, soluble recombinant) (from UniProt O89343 1-604) (natural protein)
- stoichiometry N: 4 and 2
